Reference: patent US20070086998A1
Substitutions are numbered along the chain they refer to.

B1: MS-GPC-8-27-41 (IgG4 form) (antibody, V domains shown)
VH: QVELKESGPALVKPTQTLTLTCTFSGFSLSTSGVGVGWIRQPPGKALEWLALIDWDDDKYYSTSLKTRLTISKDTSKNQVVLTMTNMDPVDTATYYCARSPRYRGAFDYWGQGTLVTVSS
VL: DIVLTQPPSVSGAPGQRVTISCSGSESNIGNNYVQWYQQLPGTAPKLLIYDNNQRPSGVPDRFSGSKSGTSASLAITGLQSEDEADYYCQSYDMNVHVFGGGTKLTVLG
B2: MS-GPC-8-10-57 (IgG4 form) (antibody, V domains shown)
VH: B1 VH
VL: B1 VL with M94L, N95I, V96R
B3: MS-GPC-8-17 (Fab) (Fab, V domains shown)
VH: B1 VH with E3Q
VL: B1 VL with E26S, N31S, Q35S, M94F, N95S, H97Y
B4: MS-GPC-8-6-13 (IgG4 form) (antibody, V domains shown)
VH: B1 VH
VL: B1 VL with N31A, Q35T, M94Y, N95D, V96H, H97Y
B5: MS-GPC-8-6 (Fab) (Fab, V domains shown)
VH: B1 VH with E3Q
VL: B1 VL with E26S, N31S, Q35S, M94Y, N95D, V96H, H97Y
B6: MS-GPC-8-Fab (Fab, V domains shown)
VH: B1 VH with E3Q
VL: B1 VL with E26S, N31S, Q35S, N95P, V96Q, H97A

Target: HLA-DR as expressed on the tumor cell line
Test: cell-based or functional assay

Row | Binder | % Killing by mAb; ARH-77 (DR 12); 50 nM, 4 h | % Killing by mAb; BJAB (DR 12,13); 50 nM, 4 h | % Killing by mAb; BONNA-12; 50 nM, 4 h | % Killing by mAb; DOHH-2 (DR 1,2); 50 nM, 4 h | % Killing by mAb; EOL-1; 50 nM, 4 h | % Killing by mAb; GRANTA-519 (DR 2,11); 50 nM, 4 h | % Killing by mAb; HC-1; 50 nM, 4 h | % Killing by mAb; HD-MY-Z; 50 nM, 4 h | % Killing by mAb; HDLM-2; 50 nM, 4 h | % Killing by mAb; KARPAS-299 (DR 1,2); 50 nM, 4 h | % Killing by mAb; KARPAS-422 (DR 2,4); 50 nM, 4 h | % Killing by mAb; KM-H2; 50 nM, 4 h | % Killing by mAb; L1236; 50 nM, 4 h | % Killing by mAb; L-363; 50 nM, 4 h | % Killing by mAb; L-428 (DR 12); 50 nM, 4 h | % Killing by mAb; LP-1; 50 nM, 4 h | % Killing by mAb; MHH-CALL-4 (DR 1,2); 50 nM, 4 h | % Killing by mAb; MHH-PREB-1; 50 nM, 4 h | % Killing by mAb; MN-60 (DR 10,13); 50 nM, 4 h | % Killing by mAb; NALM-1 (DR 1,4); 50 nM, 4 h | other results
1 | B1 | 85% | 71% | 92% | 59% | 69% | 78% | 93% | 69% | 88% | 82% | 66% | 86% | 63% | 26% | 91% | 73% | 63% | 4% | 69% | 82% | % Killing by mAb; RAJI (DR 10,17); 50 nM, 4 h: 84%; % Killing by mAb; RPMI-8226; 50 nM, 4 h: 29%; % Killing by mAb; SR-786 (DR 1,2); 50 nM, 4 h: 53%; killing of melanoma cell line WM 115: 21%
2 | B2 | 88% | 67% | 91% | 60% | 49% | 78% | 86% | 57% | 84% | 79% | 68% | 88% | 66% | 24% | 91% | 70% | 46% | 8% | 66% | 78% | % Killing by mAb; RAJI (DR 10,17); 50 nM, 4 h: 86%; % Killing by mAb; RPMI-8226; 50 nM, 4 h: 26%; % Killing by mAb; SR-786 (DR 1,2); 50 nM, 4 h: 44%
3 | B3 |  |  |  |  |  |  |  |  |  |  |  |  |  |  |  |  |  |  |  |  | maximum capacity to kill MHH-Call 4 cells: 78%
4 | B4 | 87% | 64% | 86% | 53% | 53% | 73% | 93% | 72% | 90% | 76% | 71% | 87% | 66% | 19% | 92% | 73% | 43% | 11% | 67% | 65% | % Killing by mAb; RAJI (DR 10,17); 50 nM, 4 h: 83%; % Killing by mAb; RPMI-8226; 50 nM, 4 h: 19%; % Killing by mAb; SR-786 (DR 1,2); 50 nM, 4 h: 26%
5 | B5 |  |  |  |  |  |  |  |  |  |  |  |  |  |  |  |  |  |  |  |  | maximum capacity to kill MHH-Call 4 cells: 76%
6 | B6 |  |  |  |  |  |  |  |  |  |  |  |  |  |  |  |  |  |  |  |  | maximum capacity to kill MHH-Call 4 cells: 65%
